Results reported in patent US10578620B2, “Methods for detecting molecules in a sample” (The Francis Crick Institute Limited, priority 2013, dated 2020).

Tested on: pT308 (Akt phosphorylation)
Test: Two-site TSA-FRET for pT308 in FFPE human breast tumour, CIP specificity control
Procedure: TSA-FRET assay for quantification of pT308 was performed on 4-μm sections of two identical FFPE-fixed breast cancer tissue samples.
Following de-waxing and rehydration, sections were subjected to heat antigen retrieval by microwaving in TRIS-EDTA (pH 9.0) buffer, for 10 minutes at 800 W. Sections were then incubated in freshly prepared sodium borohydrate (1 mg/ml in PBS) buffer for 10 min at RT, followed by blocking with 1% BSA/PBS. Tissues sections were incubated with peroxidase suppressor (Thermo Scientific Pierce) for 15 min.
For the two-site TSAFRET assay, the first slide was incubated with mouse anti-panAkt (1:100), and the second slide with mouse anti-panAkt (1:100) and rabbit anti-pT308 (1:200) primary antibodies, for 16 hours at 4° C. The first slide was further immunolabeled with ORG488-conjugated anti-mouse Fab fragment secondary antibody (20 μg/ml). The second slide was immunolabeled with ORG488-conjugated anti-mouse Fab fragment (20 μg/ml) and HRP-conjugated anti-rabbit Fab fragment secondary antibody (10 μg/ml), which was detected by using Alexa-594-TSA assay. […]
The donor lifetimes of ORG488 were determined from at least 10 ROIs of the tumours, each performed in triplicate unless otherwise indicated. The FRET efficiency was calculated as described above (FIG. 4(a)-(c)).

B1: calf intestinal alkaline phosphatase (protein, UniProt P19111 20-506, looked up)
Intestinal-type alkaline …: LVPVEEEDPAFWNRQAAQALDVAKKLQPIQTAAKNVILFLGDGMGVPTVTATRILKGQMNGKLGPETPLAMDQFPYVALSKTYNVDRQVPDSAGTATAYLCGVKGNYRTIGVSAAARYNQCKTTRGNEVTSVMNRAKKAGKSVGVVTTTRVQHASPAGAYAHTVNRNWYSDADLPADAQMNGCQDIAAQLVNNMDIDVILGGGRKYMFPVGTPDPEYPDDASVNGVRKRKQNLVQAWQAKHQGAQYVWNRTALLQAADDSSVTHLMGLFEPADMKYNVQQDHTKDPTLQEMTEVALRVVSRNPRGFYLFVEGGRIDHGHHDDKAYMALTEAGMFDNAIAKANELTSELDTLILVTADHSHVFSFGGYTLRGTSIFGLAPSKALDSKSYTSILYGNGPGYALGGGSRPDVNDSTSEDPSYQQQAAVPQASETHGGEDVAVFARGPQAHLVHGVEEETFVAHIMAFAGCVEPYTDCNLPAPTTATSIPD
notes: phosphatase used as control to verify FRET signal is due to Akt phosphorylation
- FRET efficiency (Ef) of panAkt+pT308 in CIP-treated tumour samples (CIP 10 units/slide 30 min, untreated Ef=6.0): 1.5%
- change of FRET efficiency of the panAkt+pT308 signal in the CIP-treated condition (FIG. 4(c), p<0.0001): reduction
